Measurements: US20190248900A1 (Y BIOLOGICS, published 2019)

What follows are binders tested against human PD-1 (NM_005018.2) over-expressed on cells (human, UniProt Q15116 25-288) (assay: cell-based or functional assay).
human PD-1 (NM_005018.2) over-expressed on cells, sequence (Q15116 25-288): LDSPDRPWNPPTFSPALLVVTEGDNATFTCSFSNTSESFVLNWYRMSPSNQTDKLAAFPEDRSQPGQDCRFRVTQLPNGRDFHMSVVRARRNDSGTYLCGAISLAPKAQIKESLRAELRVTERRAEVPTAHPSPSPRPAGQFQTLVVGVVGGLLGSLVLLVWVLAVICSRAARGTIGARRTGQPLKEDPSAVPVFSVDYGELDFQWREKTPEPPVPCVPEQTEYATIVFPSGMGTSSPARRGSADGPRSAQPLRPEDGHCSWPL

| Binder | EC50 [nM], PD1/PD-L1 blockade bioassay [nM] |
| --- | --- |
| PD1-72D10 (antibody, V domains shown) VH: QVQLVESGGGVVQPGRSLRLSCAASGFTFSSYAMHWVRQAPGKGLEWVAVISYDGSNKYYADSVKGRFTISRDNSKNTLYLQMNSLRAEDTAVYYCTTTTFDSWGQGTLVTVSS VL: DIVMTQTPLSLPVTPGEAASISCRSSQSLLDSEDGNTYLDWYLQKPGQSPQLLIYTLSHRASGVPDRFSGSGSGTDFTLKISRVEAEDVGIYYCMQRVEFPFTFGQGTKLEIK | 1.21 |
| PD1-45D6(A/4C1) (antibody, V domains shown) VH: QVQLVESGGGVVQPGRSLRLSCAASGFTFSSYAMHWVRQAPGKGLEWVAVISYDGNDKYYADSVKGRFTISRDNSKNTLYLQMNSLRAEDTAVYYCVPTTFEYWGQGTLVTVSS VL: DIVMTQTPLSLPVTPGEPASISCRSSQSLLDSDDGNTYLDWYLQKPGQSPQLLIYTLSHRASGVPDRFSGSGSGTDFTLKISRVEAEDVGIYYCMQRVEFPFTFGQGTKLDIK | 1.76 |
| PD1-45D6(A/3G1) (antibody, V domains shown) VH: QVQLVESGGGVVQPGRSLRLSCAASGFTFSSYAMHWVRQVPGKGLEWVAVISYDGNDKYYADSVKGRFTISRDNSKNTLYLQMNSLRAEDTAVYYCVPTTFEYWGQGSQVTVSS VL: DIVMTQTPLSLPVTPGEPASISCRSSQSLLDSEDGNTYLDWYLQKPGQSPQLLIYTLSHRASGVPDRFSGSGSGTDFTLEISRVEAEDVGVYYCMQRVEFPFTFGQGTKLDIK | 0.98 |
| PD1-45D6(A/5B12) (antibody, V domains shown) VH: QVQLVESGGGVVQPGRSLRLSCAASGFTFSVYAMHWVRQAPGKGLEWVAVISYDGNDKYYADSVKGRFTISRDNSKNTLYLQMNSLRAEDTAVYYCVPTTFEYWGQGTLVTVSS VL: DIVMTQTPLSLPVTPGEAASISCRSSQSLLDSEDGNTYLDWYLQKPGQSPQLLIYTLSHRASGVPDRFSGSGSGTDFTLKISRVEAEDVGIYYCMQRVEFPFTFGQGTKVEIK | 0.8 |
| PD1-45D6(A/3H6) (antibody, V domains shown) VH: QVQLVESGGGVVQPGRSLRLSCAASGFTFSSYAMHWVRQVPGKGLEWVAVISYDGNDKYYADSVKGRFTISRDNSKNTLYLQMNSLRAEDTAVYYCVPTTFEYWGQGSQVTVSS VL: DIVMTQTPLSLPVTPGEAASISCRSSQSLLDSEDGNTYLDWYLQKPGQSPQLLIYTLSHRASGVPDRFSGSGSGTDFTLKISRVEAEDVGVYYCMQRVEFPFTFGQGTKLEIK | 1.49 |
| PD1-45D6(A/4C9) (antibody, V domains shown) VH: QVQLVESGGGVVQPGRSLRLSCAASGFTFSSYAMHWVRQAPGKGLEWVAVISYDGNDKYYADSVKGRFTISRDNSKNTLYLQMNSLRAEDTAVYYCVPTTFEYWGQGTLVTVSS VL: DIVMTQTPLSLPVTPGEAASISCRSSQSLLDSEDGNTYLDWYLQKPGQSPQLLIYTLSHRASGVPDRFSGSGSGTDFTLKISRVAAEDVGIYYCMQRVEFPFTFGQGTKLEIK | 2.72 |
| PD1-45D6(A/4H6) (antibody, V domains shown) VH: QVQLVESGGGVVQPGRSLRLSCAASGFTFSSYAMHWVRQAPGKGLEWVAVISYDGNDKYYADSVKGRFTISRDNSKNTLYLQMNSLRAEDTAVYYCVPTTFEYWGQGTLVTVSS VL: DIVMTQTPLSLPVTPGEPASISCRSSQSLFDSDDGNTYLDWYLQKPGQSPQLLIYTLSHRASGVPDRFSGSGSGTDFTLKISRVEAEDVGLYYCMQRVEFPFTFGQGTKLEIK | 1.19 |
| PD1-45D6(A/5A6) (antibody, V domains shown) VH: QVQLVESGGGVVQPGRSLRLSCAASGFTFRLYAMHWVRQAPGKGLEWVAVISHDGNDKYYADSVKGRFTISRDNSKNTLYLQMNSLRAEDTAVYYCVPTTFEYWGQGTLVTVSS VL: DIVMTQTPLSLPVTPGEPASISCRSSQSLLDSEDGNTYLDWYLQKPGQSPQLLIYTLSHRASGVPDRFSGSGSGTDFTLKISRVEAEDVGVYYCMQRIDFPYTFGQGTKLDIK | 0.92 |
| PD1-45D6(A/4D4) (antibody, V domains shown) VH: QVQLVESGGGVVQPGRSLRLSCAASGFTFSSYAMHWVRQAPGKGLEWVAVISYDGNDKYYADSVKGRFTISRDNSKNTLYLQMNSLRAEDTAVYYCVPTTFEYWGQGTLVTVSS VL: DIVMTQTPLSLPVTPGEPASISCRSSQSLLDSEDGNTYLDWYLQKPGQSPQLLIYTLSHRASGVPDRFSGSGSGTEFNLRISRVEAEDVGIYYCMQRVEFPFTFGQGTKVDIK | 1.74 |
| PD1-45D6(A/3H4) (antibody, V domains shown) VH: QVQLVESGGGVVQPGRSLRLSCAASGFTFSSYAMHWVRQVPGKGLEWVAVISYDGNDKYYADSVKGRFTISRDNSKNTLYLQMNSLRAEDTAVYYCVPTTFEYWGQGSQVTVSS VL: DIVMTQTPLSLPVTPGEPASISCRSSQSLFDSDDGNTYLDWYLQKPGQSPQLLIYTLSHRASGVSDRFSGSGSGTDFTLKISRVEAEDSGIYYCMQRVEFPFTFGQGTKLDIK | 1.67 |

Further lines, results first:

| EC50 [nM], PD1/PD-L1 blockade bioassay [nM] | Binder |
| --- | --- |
| 1.31 | PD1-74A11 (antibody, V domains shown) VH: QVQLVQSGGGVVQPGRSLRLSCAASGFTFSSYAMHWVRQAPGKGLEWVAVISYDGSNKYYADSVKGRFTISRDNSKNTLYLQMNSLRAEDTAVYYCARTTFDYWGQGTLITVSS VL: DIVMTQTPLSLPVTPGEPASISCRSSQSLFDSDDGNTYLDWYLQKPGQSPQLLIYTLSYRASGVPDRFSGSGSGTDFTLKISRVAAEDVGIYYCMQRVEFPFTFGQGTKVDIK |
| 1.44 | PD1-45D6(A/5C8) (antibody, V domains shown) VH: QVQLVESGGGVVQPGRSLRLSCAASGFTFMRYAMHWVRQAPGKGLEWVAVISYDGNDKYYADSVKGRFTISRDNSKNTLYLQMNSLRAEDTAVYYCVPTTFEYWGQGTLVTVSS VL: DIVMTQSPLSLPVTPGEPASISCRSSQSLLDSEDGNTYLDWYLQKPGQSPQLLIYTLSHRASGVPDRFSGSGSGTDFTLKISRVEAEDVGVYYCMQRVEFPFTFGQGTKLDIK |
| 0.65 | PD1-49A2(A/2B10) (antibody, V domains shown) VH: QVQLVESGGGVVQPGRSLRLSCAASGFTFLVYAMHWVRQAPGKGLEWVAVISYDGSHKYYADSVKGRFTISRDNSKNTLYLQMNSLRAEDTAVYYCTTTTFDSWGQGTLVTVSS VL: DIVMTQTPLSLPVTPGEPASISCRSSQSLLDSDDGNTYLDWYLQKPGQSPQLLIYTLSHRASGVPDRFSGSGSGTDFTLKISRVAAEDVGLYYCMQRVEFPFTFGQGTKLDIK |
| 0.81 | PD1-75C10 (antibody, V domains shown) VH: QVQLVESGGGVVQPGRSLRLSCAASGFTFSSYAMHWVRQAPGKGLEWVAVISYDGSNKYYADSVKGRFTISRDNSKNTLYLQMNSLRAEDTAVYYCVPTTFEYWGQGSQVTVSS VL: DIVMTQTPLSLPVTPGEAASISCRSSQSLLDSEDGNTYLDWYLQKPGQSPQLLIYTLSHRASGVPDRFSGSGSGTDFTLKITRVEAEDVGVYYCMQRIEFPYTFGQGTKLEIK |
| 2 | PD1-45D6(A/5H9) (antibody, V domains shown) VH: QVQLVESGGGVVQPGRSLRLSCAASGFTFWTYAMHWVRQAPGKGLEWVAVISYDGNDKYYADSVKGRFTISRDNSKNTLYLQMNSLRAEDTAVYYCVPTTFEYWGQGTLVTVSS VL: DIVMTQTPLSLPVTPGEPASISCRSSQSLLDSDDGNTYLDWYLQKPGQSPQLLIYTLSHRASGVSDRFSGSGSGTDFTLEISRVEAEDVGVYYCMQRRDFPFTFGQGTKVEIK |
